In publication PMC3404119:

Legend:
Her1 (zebrafish) = test: MITOMI (mechanically induced trapping of molecular interactions); GFP-tagged Her protein from wheat germ extract immobilised on the microfluidic chip surface with anti-GFP antibody and washed with PBS; mCherry-tagged protein expressed on chip in wheat germ extract with 250 nM Cy5-labelled DNA oligomer; 3 h at room temperature; slope of free against bound mCherry signal as relative affinity
Her1-GFP (zebrafish) = test: MITOMI; conditions: PPARγ-mCherry present; MITOMI in wheat germ TnT SP6 expression extract, 3 h at room temperature; PBS wash of immobilized protein; DNA spotted with 1% BSA; salt and pH not stated
[1] = tested on: Her7 (coupled to chip, Fig 2D);Hes6-mCherry (zebrafish;zebrafish); test: MITOMI; conditions: MITOMI in wheat germ TnT SP6 expression extract, 3 h at room temperature; PBS wash of immobilized protein; DNA spotted with 1% BSA; salt and pH not stated

Q: For Her7 (natural protein), which fold lower relative affinity than the Her1 homodimer (Her1-mCherry on Her1-GFP) (Her1 (zebrafish)) is on record?
A: 3 fold

Q: Which fold lower relative affinity than the Her1 homodimer (Her1-mCherry on Her1-GFP) (Her1 (zebrafish)) does the source give for “MyoD (myogenic differentiation 1) (from UniProt Q90477 1-275) (natural protein)” here?
A: 3 fold

Q: Which binding signal (relative to seq 2) (Her1-GFP (zebrafish)) does the source give for seq 46 (control) here?
A: 0.0105

Q: And the binding signal (relative to seq 2) [1]?
A: 0.0131

Q: Which results are given for seq 47 (control)?
A: binding signal (relative to seq 2) (Her1-GFP (zebrafish)): 0.0105; binding signal (relative to seq 2) [1]: 0.0137
